In US20120328590A1 one finds TUNEL-positive (apoptotic) cells by laser scanning cytometry, mean and cell survival in Colony Forming Assay (CFA), compared to Cat-GFP control data, which are given here for two substances.

For the assay, the target named is actin (endogenous nuclear and cytoplasmic actin of Mel-Juso human melanoma cells) (human). The assay is described as follows: cell-based or functional assay.

Substance “DNase 1 construct C13 (signal peptide deleted, A114F actin-binding-site mutation, SV-40 NLS at the N-terminus) (from UniProt P24855 23-282) (enzyme)” displayed a TUNEL-positive (apoptotic) cells by laser scanning cytometry, mean of 5.4% and a cell survival in Colony Forming Assay (CFA), compared to Cat-GFP control of 32.4%.
The like results for “DNase 1 construct C11 (signal peptide deleted, A114F actin-binding-site mutation, SV-40 NLS at the C-terminus) (from UniProt P24855 23-282) (enzyme)” were, in that order, 11% and 23.2%.
